The chains are these.
B1: Biotinylated full length PcrA (Geobacillus stearothermophilus), wild type [modified: biotin; biotin] [Geobacillus stearothermophilus] / UvrB, Bacillus subtilis [B. subtilis 168 (endogenous in the cell extract)] (parent complex)
chain 1: MNFLSEQLLAHLNKEQQEAVRTTEGPLLIMAGAGSGKTRVLTHRIAYLMAEKHVAPWNILAITFTNKAAREMRERVQSLLGGAAEDVWISTFHSMCVRILRRDIDRIGINRNFSILDPTDQLSVMKTILKEKNIDPKKFEPRTILGTISAAKNELLPPEQFAKRASTYYEKVVSDVYQEYQQRLLRNHSLDFDDLIMTTIQLFDRVPDVLHYYQYKFQYIHIDEYQDTNRAQYTLVKKLAERFQNICAVGDADQSIYRWRGADIQNILSFERDYPNAKVILLEQNYRSTKRILQAANEVIEHNVNRKPKRIWTENPEGKPILYYEAMNEADEAQFVAGRIREAVERGERRYRDFAVLYRTNAQSRVMEEMLLKANIPYQIVGGLKFYDRKEIKDILAYLRVIANPDDDLSLLRIINVPKRGIGASTIDKLVRYAADHELSLFEALGELEMIGLGAKAAGALAAFRSQLEQWTQLQEYVSVTELVEEVLDKSGYREMLKAERTIEAQSRLENLDEFLSVTKHFENVSDDKSLIAFLTDLALISDLDELDGTEQAAEGDAVMLMTLHAAKGLEFPVVFLIGMEEGIFPHNRSLEDDDEMEEERRLAYVGITRAEEELVLTSAQMRTLFGNIQMDPPSRFLNEIPAHLLETASRRQAGASRPAVSRPQASGAVGSWKVGDRANHRKWGIGTVVSVRGGGDDQELDIAFPSPIGIKRLLAKFAPIEKV
chain 2: MKDRFELVSKYQPQGDQPKAIEKLVKGIQEGKKHQTLLGATGTGKTFTVSNLIKEVNKPTLVIAHNKTLAGQLYSEFKEFFPNNAVEYFVSYYDYYQPEAYVPQTDTFIEKDASINDEIDKLRHSATSALFERRDVIIIASVSCIYGLGSPEEYREMVVSLRTEMEIERNELLRKLVDIQYARNDIDFQRGTFRVRGDVVEIFPASRDEHCVRVEFFGDEIERIREVDALTGEILGDRDHVAIFPASHFVTRAEKMEKAIQNIEKELEEQLKVMHENGKLLEAQRLEQRTRYDLEMMREMGFCSGIENYSRHLTLRPPGSTPYTLLDYFPDDFMIVVDESHVTIPQVRGMFNGDQARKQVLVDHGFRLPSALDNRPLRFEEFEKHMHNIVYVSATPGPYEIEHTDEMVEQIIRPTGLLDPLIDVRPIEGQIDDLIGEIQARIERNERVLVTTLTKKMSEDLTDYLKEIGIKVNYLHSEIKTLERIEIIRDLRLGKYDVLVGINLLREGLDIPEVSLVAILDADKEGFLRSERSLIQTIGRAARNAEGRVIMYADKITKSMEIAINETKRRREQQERFNEEHGITPKTINKEIRDVIRATVAAEDKAEYKTKAAPKLSKMTKKERQKVVEQMEHEMKEAAKALDFERAAELRDLLLELKAEG
B2: Biotinylated full length PcrA (Geobacillus stearothermophilus), wild type [modified: biotin; biotin] [Geobacillus stearothermophilus] / LigA (NAD+-dependent DNA ligase), Bacillus subtilis [B. subtilis 168 (endogenous in the cell extract)] (parent complex)
chain 1: B1 chain 1
chain 2: MDKETAKQRAEELRRTINKYSYEYYTLDEPSVPDAEYDRLMQELIAIEEEHPDLRTPDSPTQRVGGAVLEAFQKVTHGTPMLSLGNAFNADDLRDFDRRVRQSVGDDVAYNVELKIDGLAVSLRYEDGYFVRGATRGDGTTGEDITENLKTIRNIPLKMNRELSIEVRGEAYMPKRSFEALNEERIKNEEEPFANPRNAAAGSLRQLDPKIAAKRNLDIFVYSIAELDEMGVETQSQGLDFLDELGFKTNQERKKCGSIEEVITLIDELQAKRADLPYEIDGIVIKVDSLDQQEELGFTAKSPRWAIAYKFPAEEVVTKLLDIELNVGRTGVITPTAILEPVKVAGTTVSRASLHNEDLIKEKDIRILDKVVVKKAGDIIPEVVNVLVDQRTGEEKEFSMPTECPECGSELVRIEGEVALRCINPECPAQIREGLIHFVSRNAMNIDGLGERVITQLFEENLVRNVADLYKLTKERVIQLERMGEKSTENLISSIQKSKENSLERLLFGLGIRFIGSKAAKTLAMHFESLENLKKASKEELLAVDEIGEKMADAVITYFHKEEMLELLNELQELGVNTLYKGPKKVKAEDSDSYFAGKTIVLTGKLEELSRNEAKAQIEALGGKLTGSVSKNTDLVIAGEAAGSKLTKAQELNIEVWNEEQLMGELKK
B3: Biotinylated full length PcrA (Geobacillus stearothermophilus), wild type [modified: biotin; biotin] [Geobacillus stearothermophilus] / DNA pol I, Bacillus subtilis [B. subtilis 168 (endogenous in the cell extract)] (parent complex)
chain 1: B1 chain 1
chain 2: MTERKKLVLVDGNSLAYRAFFALPLLSNDKGVHTNAVYGFAMILMKMLEDEKPTHMLVAFDAGKTTFRHGTFKEYKGGRQKTPPELSEQMPFIRELLDAYQISRYELEQYEADDIIGTLAKSAEKDGFEVKVFSGDKDLTQLATDKTTVAITRKGITDVEFYTPEHVKEKYGLTPEQIIDMKGLMGDSSDNIPGVPGVGEKTAIKLLKQFDSVEKLLESIDEVSGKKLKEKLEEFKDQALMSKELATIMTDAPIEVSVSGLEYQGFNREQVIAIFKDLGFNTLLERLGEDSAEAEQDQSLEDINVKTVTDVTSDILVSPSAFVVEQIGDNYHEEPILGFSIVNETGAYFIPKDIAVESEVFKEWVENDEQKKWVFDSKRAVVALRWQGIELKGAEFDTLLAAYIINPGNSYDDVASVAKDYGLHIVSSDESVYGKGAKRAVPSEDVLSEHLGRKALAIQSLREKLVQELENNDQLELFEELEMPLALILGEMESTGVKVDVDRLKRMGEELGAKLKEYEEKIHEIAGEPFNINSPKQLGVILFEKIGLPVVKKTKTGYSTSADVLEKLADKHDIVDYILQYRQIGKLQSTYIEGLLKVTRPDSHKVHTRFNQALTQTGRLSSTDPNLQNIPIRLEEGRKIRQAFVPSEKDWLIFAADYSQIELRVLAHISKDENLIEAFTNDMDIHTKTAMDVFHVAKDEVTSAMRRQAKAVNFGIVYGISDYGLSQNLGITRKEAGAFIDRYLESFQGVKAYMEDSVQEAKQKGYVTTLMHRRRYIPELTSRNFNIRSFAERTAMNTPIQGSAADIIKKAMIDMAAKLKEKQLKARLLLQVHDELIFEAPKEEIEILEKLVPEVMEHALALDVPLKVDFASGPSWYDAK

In the first assay the parent is B1. As to the kind of experiment: pulldown quantified by mass spectrometry; parent: 12; read off a plot.
As for chain 1 K712A, the screen value is approximately 0.
Regarding chain 1 L714A, the screen value was approximately 2.3.

Variants of B2 are the subject of a further assay. The assay is described as follows: pulldown quantified by mass spectrometry; parent: 26; read off a plot.
Turning to chain 1 L714A, the screen value is approximately 25.
On to chain 1 K712A, for which the screen value was approximately 21.

The variants in another assay derive from B3. The assay is described as follows: pulldown quantified by mass spectrometry; parent: 97; read off a plot.
Consider chain 1 L714A, for which the screen value was approximately 70.
Turning to chain 1 K712A, the screen value is approximately 49.

Values taken from PMC5397179 (2017).
